The target in test [1] is human μ receptor-Rluc (human) (UniProt P35372).
In test [2] the target is rat HA-μ receptor (rat) (UniProt P33535).
UniProt P33535, sequence (P33535 whole entry): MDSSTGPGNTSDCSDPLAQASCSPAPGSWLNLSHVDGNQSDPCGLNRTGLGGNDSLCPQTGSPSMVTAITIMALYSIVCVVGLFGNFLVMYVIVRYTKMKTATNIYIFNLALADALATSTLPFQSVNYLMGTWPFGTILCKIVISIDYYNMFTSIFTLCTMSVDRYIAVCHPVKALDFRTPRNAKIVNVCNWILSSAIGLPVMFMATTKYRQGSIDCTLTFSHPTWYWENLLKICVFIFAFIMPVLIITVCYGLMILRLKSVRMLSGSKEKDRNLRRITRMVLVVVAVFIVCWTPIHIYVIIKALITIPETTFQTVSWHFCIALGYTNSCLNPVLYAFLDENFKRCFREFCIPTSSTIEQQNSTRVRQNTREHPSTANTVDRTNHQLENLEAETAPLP

UniProt P35372, sequence (P35372 whole entry): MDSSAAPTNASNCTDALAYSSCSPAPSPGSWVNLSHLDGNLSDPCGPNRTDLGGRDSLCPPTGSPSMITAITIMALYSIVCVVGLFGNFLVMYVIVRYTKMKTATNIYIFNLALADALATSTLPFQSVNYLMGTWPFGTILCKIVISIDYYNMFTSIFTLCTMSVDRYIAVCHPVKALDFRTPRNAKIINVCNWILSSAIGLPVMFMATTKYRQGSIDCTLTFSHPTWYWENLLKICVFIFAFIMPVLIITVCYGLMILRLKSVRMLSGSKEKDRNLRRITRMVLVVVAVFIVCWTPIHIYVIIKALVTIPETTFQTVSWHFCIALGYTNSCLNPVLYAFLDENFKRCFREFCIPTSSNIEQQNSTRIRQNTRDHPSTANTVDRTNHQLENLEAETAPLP

“D-Ala^2, N-MePhe^4, Gly-ol-enkephalin (peptide)” yielded an arrestin-3 recruitment to the μ receptor (BRET between human μ receptor-Rluc and arrestin-3-GFP) in HEK 293 cells, EC50 in test [1] of 1200 nM. Besides, in test [2], the Gi activation (decrease of the BRET signal between Gαi1-RlucII and GFP10-Gγ2) in HEK 293 cells expressing rat HA-μ receptors, EC50 was found to be 390 nM; the Gi activation (decrease of the BRET signal between Gαi1-RlucII and GFP10-Gγ2) in HEK 293 cells expressing rat HA-μ receptors, maximum response (BRET ratio) is 12.4 BRET ratio.
